# Laboratory results as given in patent US20100022624.
# Target: α-tubulin (human, endogenous)
protein,measurement,value
"HDAC6 (human, endogenous) (protein) MTSTGQDSTTTRQRRSRQNPQSPPQDSSVTSKRNIKKGAVPRSIPNLAEVKKKGKMKKLGQAMEEDLIVGLQGMDLNLEAEALAGTGLVLDEQLNEFHCLWDDSFPEGPERLHAIKEQLIQEGLLDRCVSFQARFAEKEELMLVHSLEYIDLMETTQYMNEGELRVLADTYDSVYLHPNSYSCACLASGSVLRLVDAVLGAEIRNGMAIIRPPGHHAQHSLMDGYCMFNHVAVAARYAQQKHRIRRVLIVDWDVHHGQGTQFTFDQDPSVLYFSIHRYEQGRFWPHLKASNWSTTGFGQGQGYTINVPWNQVGMRDADYIAAFLHVLLPVALEFQPQLVLVAAGFDALQGDPKGEMAATPAGFAQLTHLLMGLAGGKLILSLEGGYNLRALAEGVSASLHTLLGDPCPMLESPGAPCRSAQASVSCALEALEPFWEVLVRSTETVERDNMEEDNVEESEEEGPWEPPVLPILTWPVLQSRTGLVYDQNMMNHCNLWDSHHPEVPQRILRIMCRLEELGLAGRCLTLTPRPATEAELLTCHSAEYVGHLRATEKMKTRELHRESSNFDSIYICPSTFACAQLATGAACRLVEAVLSGEVLNGAAVVRPPGHHAEQDAACGFCFFNSVAVAARHAQTISGHALRILIVDWDVHHGNGTQHMFEDDPSVLYVSLHRYDHGTFFPMGDEGASSQIGRAAGTGFTVNVAWNGPRMGDADYLAAWHRLVLPIAYEFNPELVLVSAGFDAARGDPLGGCQVSPEGYAHLTHLLMGLASGRIILILEGGYNLTSISESMAACTRSLLGDPPPLLTLPRPPLSGALASITETIQVHRRYWRSLRVMKVEDREGPSSSKLVTKKAPQPAKPRLAERMTTREKKVLEAGMGKVTSASFGEESTPGQTNSETAVVALTQDQPSEAATGGATLAQTISEAAIGGAMLGQTTSEEAVGGATPDQTTSEETVGGAILDQTTSEDAVGGATLGQTTSEEAVGGATLAQTTSEAAMEGATLDQTTSEEAPGGTELIQTPLASSTDHQTPPTSPVQGTTPQISPSTLIGSLRTLELGSESQGASESQAPGEENLLGEAAGGQDMADSMLMQGSRGLTDQAIFYAVTPLPWCPHLVAVCPIPAAGLDVTQPCGDCGTIQENWVCLSCYQVYCGRYINGHMLQHHGNSGHPLVLSYIDLSAWCYYCQAYVHHQALLDVKNIAHQNKFGEDMPHPH",amount of acetylated α-tubulin (immunoblot) after HDAC6 siRNA,only HSMCs transfected with siRNAs specific for HDAC6 displayed increased levels of acetylated α-tubulin
